The labels stand for the following.
B1: target 1 insC 3' of 19,insA 3' of 8 (mixed)
RNA 1: CACCCGUGCAAAAAUGCAGGGGUCUAAAACUGAGCGGAUAACCUCUCUAUGG
RNA 2: GGGAAUGGAUCCACAUCUACGAAUUCGUACCAUCAGAGAGGUUAUACCGCUCACCGAGAUCGGAAGAGCACACGU
B2: target 1 insC 3' of 12,insA 3' of 3 (mixed)
RNA 1: B1 RNA 1
RNA 2: GGGAAUGGAUCCACAUCUACGAAUUCGUACCAUAGAGAGGCUUAUCCGCUACACCGAGAUCGGAAGAGCACACGU
B3: target 1 insC 3' of 14,insU 3' of 6 (mixed)
RNA 1: B1 RNA 1
RNA 2: B2 RNA 2 with G39C, C41G, G48U, C49G, U50C, A51U
B4: target 1 A9G,C22U (mixed)
RNA 1: B1 RNA 1
RNA 2: GGGAAUGGAUCCACAUCUACGAAUUCGUAUCAUAGAGAGGUUGUCCGCUCACCGAGAUCGGAAGAGCACACGU
B5: target 1 C4G,U8C (mixed)
RNA 1: B1 RNA 1
RNA 2: B4 RNA 2 with U30C, G43A, U44C, C48G
B6: target 1 U3A,G15A (mixed)
RNA 1: B1 RNA 1
RNA 2: B4 RNA 2 with U30C, G37A, G43A, U49A
B7: target 1 insA 3' of 13,insC 3' of 8 (mixed)
RNA 1: B1 RNA 1
RNA 2: B2 RNA 2 with G40A, C41G, G48C, C49G, U50C, A51U
B8: target 1 U3C,U11G (mixed)
RNA 1: B1 RNA 1
RNA 2: B4 RNA 2 with U30C, U41G, G43A, U49C
B9: target 1 C4G,G13A (mixed)
RNA 1: B1 RNA 1
RNA 2: B4 RNA 2 with U30C, G39A, G43A, C48G
B10: target 1 insU 3' of 7,insC 3' of 5 (mixed)
RNA 1: B1 RNA 1
RNA 2: B2 RNA 2 with C41U, U43A, A44U, U45C, C46U, U50C, A51U
B11: target 1 C2A,G15A (mixed)
RNA 1: B1 RNA 1
RNA 2: B4 RNA 2 with U30C, G37A, G43A, C50A
B12: target 1 insC 3' of 15,insA 3' of 6 (mixed)
RNA 1: B1 RNA 1
RNA 2: B2 RNA 2 with A38C, G39A, C41G, G48A, C49G, U50C, A51U
B13: target 1 insA 3' of 13,insA 3' of 8 (mixed)
RNA 1: B1 RNA 1
RNA 2: B2 RNA 2 with G40A, C41G, C46A, G48C, C49G, U50C, A51U
B14: target 1 insC 3' of 20,insA 3' of 19 (mixed)
RNA 1: B1 RNA 1
RNA 2: GGGAAUGGAUCCACAUCUACGAAUUCGUACCACUAAGAGAGGUUAUCCGCUCACCGAGAUCGGAAGAGCACACGU
B15: target 1 C6U,A18G (mixed)
RNA 1: B1 RNA 1
RNA 2: B4 RNA 2 with U30C, A34G, G43A, C46U
B16: target 1 insC 3' of 14,insC 3' of 13 (mixed)
RNA 1: B1 RNA 1
RNA 2: B14 RNA 2 with C33U, U34A, A35G, G39C, A40G, G41C
B17: target 1 insU 3' of 21,insU 3' of 12 (mixed)
RNA 1: B1 RNA 1
RNA 2: B1 RNA 2 with A32U, U33A, C34U, A44U, U45A, A46U
B18: target 1 complement block 6-11 (mixed)
RNA 1: B1 RNA 1
RNA 2: B4 RNA 2 with U30C, U41A, U42A, G43U, U44A, C45G, C46G
B19: target 1 C6A,A16U (mixed)
RNA 1: B1 RNA 1
RNA 2: B4 RNA 2 with U30C, A36U, G43A, C46A
B20: target 1 A1G,C7A (mixed)
RNA 1: B1 RNA 1
RNA 2: B4 RNA 2 with U30C, G43A, C45A, A51G
B21: target 1 insA 3' of 12,insA 3' of 12 (mixed)
RNA 1: B1 RNA 1
RNA 2: B14 RNA 2 with C33U, U34A, A35G, A40G, G41A, G42A
B22: target 1 insG 3' of 10,insG 3' of 4 (mixed)
RNA 1: B1 RNA 1
RNA 2: B2 RNA 2 with C41U, U43G, U50G, A51U
B23: target 1 U3A,C7U (mixed)
RNA 1: B1 RNA 1
RNA 2: B4 RNA 2 with U30C, G43A, C45U, U49A
B24: target 1 insA 3' of 15,insA 3' of 6 (mixed)
RNA 1: B1 RNA 1
RNA 2: B2 RNA 2 with G39A, C41G, G48A, C49G, U50C, A51U
B25: target 1 C4A,U11C (mixed)
RNA 1: B1 RNA 1
RNA 2: B4 RNA 2 with U30C, U41C, G43A, C48A
B26: target 1 insA 3' of 5,insA 3' of 5 (mixed)
RNA 1: B1 RNA 1
RNA 2: B2 RNA 2 with C41U, U43A, A44U, U45C, C47G, G48A, C49A, U50C, A51U
B27: target 1 C2U,C22U (mixed)
RNA 1: B1 RNA 1
RNA 2: B4 RNA 2 with G43A, C50U
B28: target 1 insG 3' of 22,insA 3' of 15 (mixed)
RNA 1: B1 RNA 1
RNA 2: B14 RNA 2 with C31G, A32C, C33A, A36G, G37A, A38G, G39A
B29: target 1 U3C,C4U (mixed)
RNA 1: B1 RNA 1
RNA 2: B4 RNA 2 with U30C, G43A, C48U, U49C
B30: target 1 U3G,C4G (mixed)
RNA 1: B1 RNA 1
RNA 2: B4 RNA 2 with U30C, G43A, C48G, U49G
B31: target 1 insC 3' of 19,insC 3' of 15 (mixed)
RNA 1: B1 RNA 1
RNA 2: B14 RNA 2 with C33U, U34C, A36G, G37A, A38G, G39C
B32: target 1 insA 3' of 17,insU 3' of 13 (mixed)
RNA 1: B1 RNA 1
RNA 2: B14 RNA 2 with C33U, U34A, A35G, G37A, A38G, G39A, A40G, G41U

Residue numbers refer to the chain shown, from its start. Names and notes keep the numbering of the source.

For this data set, the target named is T1, EsCas13d, nuclease-dead (Eubacterium siraeum, UniProt B0MS50, R295A;H300A;R849A;H854A).
T1 sequence: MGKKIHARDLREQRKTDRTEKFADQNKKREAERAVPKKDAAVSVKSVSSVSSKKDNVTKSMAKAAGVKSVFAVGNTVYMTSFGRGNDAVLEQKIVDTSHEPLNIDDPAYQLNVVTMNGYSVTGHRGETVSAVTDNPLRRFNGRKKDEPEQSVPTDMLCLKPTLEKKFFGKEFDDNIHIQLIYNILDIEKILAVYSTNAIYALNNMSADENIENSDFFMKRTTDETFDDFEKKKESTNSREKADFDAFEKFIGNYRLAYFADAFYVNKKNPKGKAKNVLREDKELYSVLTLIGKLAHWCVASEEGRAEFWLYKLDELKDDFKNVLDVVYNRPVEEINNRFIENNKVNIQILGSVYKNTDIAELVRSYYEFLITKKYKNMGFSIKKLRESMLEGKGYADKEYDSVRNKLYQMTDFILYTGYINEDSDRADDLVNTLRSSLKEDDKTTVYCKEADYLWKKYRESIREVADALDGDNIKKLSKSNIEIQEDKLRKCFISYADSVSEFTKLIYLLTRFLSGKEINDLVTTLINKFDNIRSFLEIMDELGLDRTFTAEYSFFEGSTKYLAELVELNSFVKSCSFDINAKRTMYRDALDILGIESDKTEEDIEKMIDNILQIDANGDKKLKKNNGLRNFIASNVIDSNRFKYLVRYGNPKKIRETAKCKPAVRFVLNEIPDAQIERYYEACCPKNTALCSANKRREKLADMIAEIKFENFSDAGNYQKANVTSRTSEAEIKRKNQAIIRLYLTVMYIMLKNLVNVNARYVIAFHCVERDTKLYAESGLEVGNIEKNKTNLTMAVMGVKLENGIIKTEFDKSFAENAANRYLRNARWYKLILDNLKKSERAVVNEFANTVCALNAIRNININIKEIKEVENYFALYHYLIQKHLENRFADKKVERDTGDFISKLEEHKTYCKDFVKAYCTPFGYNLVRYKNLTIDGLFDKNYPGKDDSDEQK
The data set is described as follows: crRNA (strand 1, pre-loaded); Mg2+; 40 mM Tris-HCl pH 7.5, 150 mM NaCl, 6 mM MgCl2, 1 mM DTT, 0.1% Tween-20, 0.2 mg/ml BSA; 25 C; 10 min per concentration, then washed. Particulars: tags: His6-TwinStrep-SUMO cleaved; N-terminal SNAP kept (SNAP-Surface 488); label: 3' end held by stalled T7 RNA polymerase.
B1: the dissociation constant Kd is 47 ± 4 nM. For B2 the value was 9.3 ± 0.8 nM; for B3, 53 ± 25 nM. B4: binding was characterised by a dissociation constant (Kd) of 27.3 ± 2.3 nM. In the case of B5 it was 4.64 ± 0.25 nM; in that of B6, 20 ± 4 nM; in that of B7, 6.4 ± 0.8 nM. In turn, B8 came in with an equilibrium dissociation constant (Kd) of 35 ± 4 nM. B9 gave a dissociation constant (Kd) of 7.3 ± 0.9 nM. For B10 the value was 12.5 ± 0.5 nM; for B11, 20.2 ± 0.9 nM; for B12, 22.4 ± 1.5 nM. In the case of B13 it was 4.8 ± 0.23 nM; in that of B14, 9.1 ± 1 nM; in that of B15, 54 ± 18 nM. In the case of B16 it was 53 ± 9 nM; in that of B17, 21.5 ± 1.3 nM; in that of B18, 14.5 ± 1.2 nM.

As to B19, binding was put at a Kd of 44 ± 4 nM. The molecule B20 came in with a Kd of 8.7 ± 0.5 nM. For B21 the value was 14.3 ± 0.7 nM; for B22, 35 ± 7 nM; for B23, 5.4 ± 0.4 nM. Molecule B24 showed a dissociation constant Kd of 14.4 ± 1.4 nM. For B25 the value was 10 ± 0.9 nM; for B26, 8.5 ± 0.7 nM. For B27 the value was 26 ± 6 nM. In the case of B28 it was 17.2 ± 1.6 nM.

B29 showed a Kd of 49 ± 8 nM. B30 had a dissociation constant (Kd) of 5.2 ± 0.4 nM. In the case of B31 it was 45 ± 5 nM; in that of B32, 22 ± 4 nM.

A word on the Kd: it is the equilibrium constant for the complex coming apart.

Values taken from paper PMC10786891, “Massively parallel profiling of RNA-targeting CRISPR-Cas13d”.
